According to doi:10.1101/2024.05.17.594765:
Changes are numbered by the printed parent chain. Names and notes keep the numbering of the source. Blank lines part the entries; values can stand above or below the binder they belong to.

Experiments:
[1] = biological target: T1, C-terminally Halo-tagged full-length zyxin (zyxin-Halo), Q15942; assay: force reconstitution TIRF assay; details: chain shown with the change; images were acquired every 1 s; parent: est. 490; read off a plot
T1 chain: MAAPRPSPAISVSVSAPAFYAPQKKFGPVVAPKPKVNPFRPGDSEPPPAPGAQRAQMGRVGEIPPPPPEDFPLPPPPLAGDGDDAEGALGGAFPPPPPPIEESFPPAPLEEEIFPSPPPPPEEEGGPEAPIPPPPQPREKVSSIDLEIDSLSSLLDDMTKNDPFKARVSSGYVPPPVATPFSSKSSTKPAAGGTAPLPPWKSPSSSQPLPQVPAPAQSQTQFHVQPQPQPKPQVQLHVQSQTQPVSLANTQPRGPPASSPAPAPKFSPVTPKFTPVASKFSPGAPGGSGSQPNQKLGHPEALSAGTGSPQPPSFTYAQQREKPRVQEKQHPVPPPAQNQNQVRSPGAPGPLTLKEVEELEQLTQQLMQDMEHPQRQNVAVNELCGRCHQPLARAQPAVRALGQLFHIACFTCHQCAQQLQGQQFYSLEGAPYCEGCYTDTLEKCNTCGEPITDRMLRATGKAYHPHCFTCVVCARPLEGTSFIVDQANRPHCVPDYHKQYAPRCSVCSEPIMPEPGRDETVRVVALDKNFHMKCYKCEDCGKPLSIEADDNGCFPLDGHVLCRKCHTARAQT

[2] = biological target: T2, zyxin mutant deficient in recruiting VASP, F(75, 97, 108, 118)A, Halo-tagged, Q15942; assay: force reconstitution TIRF assay; details: chain shown with the change; images were acquired every 1 s; parent: est. 490; read off a plot
T2 chain: T1 chain with F71A, F93A, F104A, F114A

- other: Number of Binding Events (mean) [1]: 180
B1: C-terminally Halo-tagged VASP (VASP-Halo), P50552 L226A; I231A; L235A; R273E; R274E; R275E; K276E (protein)
chain: SETVICSSRATVMLYDDGNKRWLPAGTGPQAFSRVQIYHNPTANSFRVVGRKMQPDQQVVINCAIVRGVKYNQATPNFHQWRDARQVWGLNFGSKEDAAQFAAGMASALEALEGGGPPPPPALPTWSVPNGPSPEEVEQQKRQQPGPSEHIERRVSNAGGPPAPPAGGPPPPPGPPPPPGPPPPPGLPPSGVPAAAHGAGGGPPPAPPLPAAQGPGGGGAGAPGAAAAAAGAKARKVSKQEEASGGPTAPKAESGRSGGGGLMEEMNAMLAEEEEATQVGEKTPKDESANQEEPEARVPAQSESVRRPWEKNSTTLPRMKSSSSVTTSETQPCTPSSSDYSDLQRVKQELLEEVKKELQKVKEEIIEAFVQELRKRGSP

- other: Number of Binding Events (mean) [2]: 30
B2: m6; m1 VASP:L226A; VASP:I231A; VASP:L235A; VASP:R273E; VASP:R274E; VASP:R275E; VASP:K276E; zyxin:F75A; zyxin:F97A; zyxin:F108A; zyxin:F118A (protein)
chain: B1 chain
